Laboratory results from article doi:10.1101/2020.01.09.899237.

Biological target: DnaJB8ΔCTD (human)
Assay: cross-linking

HspA1A (human Hsp70), sequence (P0DMV8 whole entry): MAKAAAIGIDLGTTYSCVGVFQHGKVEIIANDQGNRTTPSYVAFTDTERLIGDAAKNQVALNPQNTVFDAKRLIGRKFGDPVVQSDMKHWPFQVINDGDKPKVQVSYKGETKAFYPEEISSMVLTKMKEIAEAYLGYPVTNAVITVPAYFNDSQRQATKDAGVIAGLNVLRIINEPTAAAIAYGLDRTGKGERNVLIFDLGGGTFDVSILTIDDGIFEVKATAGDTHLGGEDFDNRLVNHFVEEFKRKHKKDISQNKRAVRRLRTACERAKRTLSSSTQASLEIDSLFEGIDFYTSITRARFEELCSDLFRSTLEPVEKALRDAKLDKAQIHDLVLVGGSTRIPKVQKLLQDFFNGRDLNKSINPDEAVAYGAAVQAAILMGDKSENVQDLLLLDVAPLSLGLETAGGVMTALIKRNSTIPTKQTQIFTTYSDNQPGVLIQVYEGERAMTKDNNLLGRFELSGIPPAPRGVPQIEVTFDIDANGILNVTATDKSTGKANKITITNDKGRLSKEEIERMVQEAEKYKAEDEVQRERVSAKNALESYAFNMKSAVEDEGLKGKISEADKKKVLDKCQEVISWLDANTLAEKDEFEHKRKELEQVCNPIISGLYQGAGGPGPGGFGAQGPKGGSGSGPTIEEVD

total crosslinks between the JD and HspA1A across three XL-MS experiments: 14 crosslinks
Substance: HspA1A (human Hsp70) (from UniProt P0DMV8 1-641) (natural protein)
